Assay [1] addresses T1, human IL-4Rα on cells (human PBMC B cells and CD4+ T cells, Daudi cells, HEK-Blue IL-4/IL-13 cells, myeloid … (human, UniProt P24394 26-825)).
T1 sequence: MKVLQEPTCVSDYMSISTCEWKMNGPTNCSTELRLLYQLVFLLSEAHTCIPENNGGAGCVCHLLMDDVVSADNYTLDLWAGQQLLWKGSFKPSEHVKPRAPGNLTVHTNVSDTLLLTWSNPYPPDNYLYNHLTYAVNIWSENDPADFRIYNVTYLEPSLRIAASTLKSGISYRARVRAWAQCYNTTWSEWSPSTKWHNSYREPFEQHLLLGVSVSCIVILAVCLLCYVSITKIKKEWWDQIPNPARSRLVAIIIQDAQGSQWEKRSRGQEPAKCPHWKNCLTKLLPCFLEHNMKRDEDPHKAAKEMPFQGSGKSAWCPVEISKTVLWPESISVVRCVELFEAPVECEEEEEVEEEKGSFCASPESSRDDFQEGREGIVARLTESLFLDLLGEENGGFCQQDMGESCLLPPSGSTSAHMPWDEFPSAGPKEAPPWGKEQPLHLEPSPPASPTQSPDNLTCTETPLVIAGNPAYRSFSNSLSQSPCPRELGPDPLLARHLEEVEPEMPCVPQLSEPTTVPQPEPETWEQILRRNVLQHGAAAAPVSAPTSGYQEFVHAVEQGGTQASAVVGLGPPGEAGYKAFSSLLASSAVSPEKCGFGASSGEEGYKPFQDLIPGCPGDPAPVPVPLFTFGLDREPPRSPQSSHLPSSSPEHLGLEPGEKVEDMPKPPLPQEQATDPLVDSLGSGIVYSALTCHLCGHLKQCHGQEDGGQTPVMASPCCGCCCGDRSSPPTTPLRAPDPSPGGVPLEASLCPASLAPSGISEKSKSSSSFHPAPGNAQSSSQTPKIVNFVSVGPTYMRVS
As to the kind of experiment: flow cytometry on human PBMCs, CD4-positive T cells, Alexa Fluor 647 labelled antibody, percent IL-4Rα positive cells. The method, then:
(§1) Example 3b. Binding to B cells and T cells: Binding of the exemplified anti-human IL-4Rα antibodies to B cells and T cells was tested in a Fluorescence Activated Cell Sorting (FACS) assay. […] Freshly isolated cells PBMCs were resuspended at 2×10⁶ cells/mL and allowed to rest for 15 minutes at room temperature, then plated at 100 μL/well into a round bottom 96-well plate (COSTAR®) and washed with FACS buffer (PBS containing 2% fetal bovine serum from Corning®). Exemplified anti-human IL-4Rα antibodies and the respective control IgG antibodies conjugated to Alexa Fluor® 647 according to manufacturer's protocol (Thermo Fisher Scientific) were added to the wells at 66.67 nM and diluted 4-fold in duplicate. Equivalent volume of 2× antibody cocktail containing: Human TruStain FcX™. FITC anti-human CD3 Antibody, Alexa Fluor® 700 anti-human CD4 Antibody (all from Biolegend®) and CD20 Monoclonal Antibody (2H7), PerCP-Cyanine5.5 (Thermo Fisher Scientific) was then added to the wells. Cells were incubated at 4° C. for 30 minutes, washed twice with FACS buffer and resuspended in a final volume of 100 μL FACS buffer. Viability dye, Sytox™ blue (Thermo Fisher Scientific), was added and the samples were analyzed via a flow cytometer (LSRFortessa™ X-20; BD BIOSCIENCES). Data analysis was performed using FlowJo software and statistical analysis was performed using GraphPad Prism 9. […]

The target in assay [2] is T1, human IL-4Rα on cells (human PBMC B …). Description: flow cytometry on human PBMCs, CD20 B cells, Alexa Fluor 647 labelled antibody, percent IL-4Rα positive cells. The method, then:
as §1

The target is the same in assay [3]. As to the kind of experiment: cell-based or functional assay.
Assay [4] addresses T2, human FcγRIIb (CD32b) extracellular domain (human, UniProt P31994 43-217).
T2 construct: extracellular domain
T2 sequence (looked up): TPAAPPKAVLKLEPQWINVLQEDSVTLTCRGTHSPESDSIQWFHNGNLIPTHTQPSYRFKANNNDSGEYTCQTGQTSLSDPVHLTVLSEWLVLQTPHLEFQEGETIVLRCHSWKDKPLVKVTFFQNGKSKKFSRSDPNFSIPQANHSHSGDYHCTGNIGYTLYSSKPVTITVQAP
Description: SPR (Biacore), antibody captured on protein A, FcγR ECD as analyte, steady state, 25 °C. The method, then:
(§2) Unreacted sites were blocked with a 7 minute injection of ethanolamine at 10 μL/minute. Injections of 2×10 μL of glycine, pH 1.5, was used to remove any noncovalently associated protein. Running buffer was 1×HBS-EP+(TEKNOVA, P/N H8022). The FcγR extracellular domains (ECDs)-FcγRI (CD64), FcγRIIA_131R, and FcγRIIA_131H (CD32a), FcγRIIIA_158V, FcγRIIIA_158F (CD16a), and FcγRIIb (CD32b) were produced from stable CHO cell expression and purified using IgG Sepharose and size exclusion chromatography. For FcγRI binding, antibodies were diluted to […] in running buffer, and approximately 150 RU of each antibody was captured in FCs 2 through 4 (RU captured). FC1 was the reference FC, therefore no antibody was captured in FC1. […] Duplicate injections of each concentration were injected over all FCs at 40 μL/minute for 120 seconds followed by a 1200 second dissociation phase. Regeneration was performed by injecting 15 μL of 10 mM glycine, pH 1.5, at 30 μL/minute over all FCs. Reference-subtracted data was collected as FC2 FC1, FC3-FC1, and FC4-FC1 and the measurements were obtained at 25° C. The affinity (KD) was calculated using either steady state equilibrium analysis with the Scrubber 2 Biacore Evaluation Software or a “1:1 (Langmuir) binding” model in BIA Evaluation. For FcγRIIa, FcγRIIb, and FcγRIIIa binding, antibodies were diluted to 5 μg/mL in running buffer, and approximately 500 RU of each antibody was captured in FCs 2 through 4). FC1 was the reference FC. […] Duplicate injections of each concentration were injected over all FCs at 40 μL/minute for 60 seconds followed by a 120 second dissociation phase. Regeneration was performed by injecting 15 μL of 10 mM glycine, pH 1.5, at 30 μL/minute over all FCs. Reference-subtracted data was collected as FC2-FC1, FC3-FC1, and FC4-FC1, and the measurements were obtained at 25° C. The affinity (KD) was calculated using the steady state equilibrium analysis with the Scrubber 2 Biacore Evaluation Software. Each receptor was assayed at least two times.

The target of assay [5] is T3, human FcγRIIA_131H (CD32a) extracellular domain (human, UniProt P12318 34-217).
T3 construct: extracellular domain
T3 sequence (looked up): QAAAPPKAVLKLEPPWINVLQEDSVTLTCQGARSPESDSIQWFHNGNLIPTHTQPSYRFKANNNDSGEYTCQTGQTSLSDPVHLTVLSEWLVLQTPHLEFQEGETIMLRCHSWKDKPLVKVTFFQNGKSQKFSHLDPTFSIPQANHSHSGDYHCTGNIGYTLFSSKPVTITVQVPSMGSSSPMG
The assay is described as above. The method, then:
as §2

Assay [6] deals with T1, human IL-4Rα on cells (human PBMC B …). As to the kind of experiment: flow cytometry on human PBMCs, B cells, Alexa Fluor 647 labelled antibody. The procedure: as §1
Assay [7] shares this target. Description: cell-based or functional assay. The source holds these as a separate data set.
The target in assay [8] is T4, human FcγRI (CD64) extracellular domain (human, UniProt P12314 16-292).
T4 construct: extracellular domain
T4 sequence (P12314 16-292): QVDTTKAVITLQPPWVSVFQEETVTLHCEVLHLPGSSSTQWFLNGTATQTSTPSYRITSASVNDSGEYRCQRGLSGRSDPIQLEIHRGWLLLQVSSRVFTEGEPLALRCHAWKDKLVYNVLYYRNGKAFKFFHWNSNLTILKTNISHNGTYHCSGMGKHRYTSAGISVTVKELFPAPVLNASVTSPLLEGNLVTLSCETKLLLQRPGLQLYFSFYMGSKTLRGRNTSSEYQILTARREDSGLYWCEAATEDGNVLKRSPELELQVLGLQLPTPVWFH
Description: SPR (Biacore), antibody captured on protein A, FcγR ECD as analyte, 25 °C. The procedure: Unreacted sites were blocked with a 7 minute injection of ethanolamine at 10 μL/minute. Injections of 2×10 μL of glycine, pH 1.5, was used to remove any noncovalently associated protein. Running buffer was 1×HBS-EP+(TEKNOVA, P/N H8022). The FcγR extracellular domains (ECDs)-FcγRI (CD64), FcγRIIA_131R, and FcγRIIA_131H (CD32a), FcγRIIIA_158V, FcγRIIIA_158F (CD16a), and FcγRIIb (CD32b) were produced from stable CHO cell expression and purified using IgG Sepharose and size exclusion chromatography. For FcγRI binding, antibodies were diluted to […] in running buffer, and approximately 150 RU of each antibody was captured in FCs 2 through 4 (RU captured). FC1 was the reference FC, therefore no antibody was captured in FC1. […] Duplicate injections of each concentration were injected over all FCs at 40 μL/minute for 120 seconds followed by a 1200 second dissociation phase. Regeneration was performed by injecting 15 μL of 10 mM glycine, pH 1.5, at 30 μL/minute over all FCs. […] The affinity (KD) was calculated using either steady state equilibrium analysis with the Scrubber 2 Biacore Evaluation Software or a “1:1 (Langmuir) binding” model in BIA Evaluation. […] The affinity (KD) was calculated using the steady state equilibrium analysis with the Scrubber 2 Biacore Evaluation Software. […]

The target in assay [9] is T5, IL-4Rα (target of the affinity engineering of Ab10; form not stated) (UniProt P24394 26-232, limits assumed).
T5 sequence (looked up): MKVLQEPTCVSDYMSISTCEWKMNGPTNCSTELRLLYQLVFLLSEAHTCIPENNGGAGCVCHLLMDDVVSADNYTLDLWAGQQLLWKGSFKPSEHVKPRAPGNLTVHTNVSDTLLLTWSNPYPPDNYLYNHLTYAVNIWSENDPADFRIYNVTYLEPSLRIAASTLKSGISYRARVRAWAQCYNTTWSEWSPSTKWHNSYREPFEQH
As to the kind of experiment: affinity during CDR mutagenesis of Ab10 (engineered as a Fab); method and antigen form not stated; order of magnitude only.

Data on 2 molecules can be found in patent US20240100176A1 (Eli Lilly, published 2024).

B1: anti-human IL-4Rα antibody Ab7 (antibody, human IgG1, kappa)
heavy: not shown
light: DIQMTQSPSAMSASVGDRVTITCRASQDISNYLAWFQQKPGKVPTRLIYAASSLQSGVPSRFSGSGSGTEFTLTISSLQPEDFATYYCLQWSSYPRTFGQGTKVEIKRTVAAPSVFIFPPSDEQLKSGTASVVCLLNNFYPREAKVQWKVDNALQSGNSQESVTEQDSKDSTYSLSSTLTLSKADYEKHKVYACEVTHQGLSSPVTKSFNRGEC
notes: Human IgG1 backbone
As for B1, the EC50 in assay [1] is 28.7 nM; in assay [2], 0.14 nM; in assay [6] it was 0.27 nM. The “IL-4 IC50 (nM): inhibition of IL-4 induced SEAP activity in HEK-Blue IL-4R and IL-13R expressing cells” value in assay [3] was found to be 0.07 nM. The “IL-13 IC50 (nM): inhibition of IL-13 induced SEAP activity in HEK-Blue IL-4R and IL-13R expressing cells” value in assay [3] amounted to 0.51 nM. In addition, the Kd is 3020 nM in assay [4], 1240 nM in assay [5] and 0.0428 nM in assay [8]. Also, the “Inhibition of IL-4 induced B cell proliferation, IC50” value in assay [7] is 0.95 nM.

B2: Ab10 variant with the LCDR3 substitutions H91W, N92S (antibody, V domains shown)
VH: QVQLVESGGGLVQPGGSLRLSCAASGFTFSISSMNWVRQAPGKGLEWVSYISRATGAIYYADSVKGRFTISRNNAKNSLYLQMNSLRDEDTAVYYCAREPVFDYWGQGTLVTVSS
VL: DIQMTQSPSAMSASVGDRVTITCRASQGISNYLAWFQQKPGKVPTRLIYAASSLQSGVPSRFSGSGSGTEFTLTISSLQPEDFATYYCLQWSSYPRTFGQGTKVEIK
notes: also called the resulting antibody
B2 showed a Kd in assay [9] of about 0.01 nM.
